The record followed here is publication PMC7367873, “Dissecting the sequence determinants for dephosphorylation by the catalytic subunits of phosphatases PP1 and PP2A” (Nature Communications, 2020).

Assay [1] concerns GFP-14-3-3β. Put plainly: GFP-14-3-3β co-IP with LC-MS/MS, untreated GFP-14-3-3β versus GFP control (14-3-3 interactome). The note with it: pairwise comparison untreated GFP-14-3-3β vs GFP, student's t-test; 3 replicates each; LC-MS/MS label-free quantification. Type of assay: binding, human.
For assay [2], the system named is GFP-14-3-3β and its binding proteins. In words: GFP-14-3-3β co-IP with LC-MS/MS label-free quantification, untreated versus PP1c-treated. The note with it: for Difference (log2), PP1 vs untreated: pairwise comparison PP1 vs untreated, student's t-test, 3 replicates each, LC-MS/MS label-free quantification. Also noted: species or system human.

B1: HOMER3 (protein, UniProt Q9NSC5 1-361, looked up)
Homer protein homolog 3: MSTAREQPIFSTRAHVFQIDPATKRNWIPAGKHALTVSYFYDATRNVYRIISIGGAKAIINSTVTPNMTFTKTSQKFGQWADSRANTVYGLGFASEQHLTQFAEKFQEVKEAARLAREKSQDGGELTSPALGLASHQVPPSPLVSANGPGEEKLFRSQSADAPGPTERERLKKMLSEGSVGEVQWEAEFFALQDSNNKLAGALREANAAAAQWRQQLEAQRAEAERLRQRVAELEAQAASEVTPTGEKEGLGQGQSLEQLEALVQTKDQEIQTLKSQTGGPREALEAAEREETQQKVQDLETRNAELEHQLRAMERSLEEARAERERARAEVGRAAQLLDVSLFELSELREGLARLAEAAP
For B1, the “Difference (log2), untreated vs GFP” value in assay [1] was 5.445 log2. Besides, the “Difference (log2), PP1 vs untreated” value in assay [2] is given as -4.512 log2.

B2: PPP1R3D (protein, UniProt O95685 1-299, looked up)
Protein phosphatase 1 …: MSRGPSSAVLPSALGSRKLGPRSLSCLSDLDGGVALEPRACRPPGSPGRAPPPTPAPSGCDPRLRPIILRRARSLPSSPERRQKAAGAPGAACRPGCSQKLRVRFADALGLELAQVKVFNAGDDPSVPLHVLSRLAINSDLCCSSQDLEFTLHCLVPDFPPPVEAADFGERLQRQLVCLERVTCSDLGISGTVRVCNVAFEKQVAVRYTFSGWRSTHEAVARWRGPAGPEGTEDVFTFGFPVPPFLLELGSRVHFAVRYQVAGAEYWDNNDHRDYSLTCRNHALHMPRGECEESWIHFI
B2: in assay [1], the “Difference (log2), untreated vs GFP” value was determined as 3.78 log2. For the same molecule, the “Difference (log2), PP1 vs untreated” value in assay [2] is -4.778 log2.

B3: KIF23 (protein, UniProt Q02241 1-960, looked up)
Kinesin-like protein KIF23: MKSARAKTPRKPTVKKGSQTNLKDPVGVYCRVRPLGFPDQECCIEVINNTTVQLHTPEGYRLNRNGDYKETQYSFKQVFGTHTTQKELFDVVANPLVNDLIHGKNGLLFTYGVTGSGKTHTMTGSPGEGGLLPRCLDMIFNSIGSFQAKRYVFKSNDRNSMDIQCEVDALLERQKREAMPNPKTSSSKRQVDPEFADMITVQEFCKAEEVDEDSVYGVFVSYIEIYNNYIYDLLEEVPFDPIKPKPPQSKLLREDKNHNMYVAGCTEVEVKSTEEAFEVFWRGQKKRRIANTHLNRESSRSHSVFNIKLVQAPLDADGDNVLQEKEQITISQLSLVDLAGSERTNRTRAEGNRLREAGNINQSLMTLRTCMDVLRENQMYGTNKMVPYRDSKLTHLFKNYFDGEGKVRMIVCVNPKAEDYEENLQVMRFAEVTQEVEVARPVDKAICGLTPGRRYRNQPRGPVGNEPLVTDVVLQSFPPLPSCEILDINDEQTLPRLIEALEKRHNLRQMMIDEFNKQSNAFKALLQEFDNAVLSKENHMQGKLNEKEKMISGQKLEIERLEKKNKTLEYKIEILEKTTTIYEEDKRNLQQELETQNQKLQRQFSDKRRLEARLQGMVTETTMKWEKECERRVAAKQLEMQNKLWVKDEKLKQLKAIVTEPKTEKPERPSRERDREKVTQRSVSPSPVPLSSNYIAQISNGQQLMSQPQLHRRSNSCSSISVASCISEWEQKIPTYNTPLKVTSIARRRQQEPGQSKTCIVSDRRRGMYWTEGREVVPTFRNEIEIEEDHCGRLLFQPDQNAPPIRLRHRRSRSAGDRWVDHKPASNMQTETVMQPHVPHAITVSVANEKALAKCEKYMLTHQELASDGEIETKLIKGDIYKTRGGGQSVQFTDIETLKQESPNGSRKRRSSTVAPAQPDGAESEWTDVETRCSVAVEMRAGSQLGPGYQHHAQPKRKKP
With B3, in assay [1], the “Difference (log2), untreated vs GFP” value is reported as 6.386 log2. Further, the “Difference (log2), PP1 vs untreated” value in assay [2] was -4.537 log2.

B4: MTMR3 (protein, UniProt Q13615 1-1198, looked up)
Phosphatidylinositol-3,5-bisph …: MDEETRHSLECIQANQIFPRKQLIREDENLQVPFLELHGESTEFVGRAEDAIIALSNYRLHIKFKESLVNVPLQLIESVECRDIFQLHLTCKDCKVIRCQFSTFEQCQEWLKRLNNAIRPPAKIEDLFSFAYHAWCMEVYASEKEQHGDLCRPGEHVTSRFKNEVERMGFDMNNAWRISNINEKYKLCGSYPQELIVPAWITDKELESVSSFRSWKRIPAVIYRHQSNGAVIARCGQPEVSWWGWRNADDEHLVQSVAKACASDSRSSGSKLSTRNTSRDFPNGGDLSDVEFDSSLSNASGAESLAIQPQKLLILDARSYAAAVANRAKGGGCECPEYYPNCEVVFMGMANIHSIRRSFQSLRLLCTQMPDPGNWLSALESTKWLHHLSVLLKSALLVVHAVDQDQRPVLVHCSDGWDRTPQIVALAKLLLDPYYRTIEGFQVLVEMEWLDFGHKFADRCGHGENSDDLNERCPVFLQWLDCVHQLQRQFPCSFEFNEAFLVKLVQHTYSCLFGTFLCNNAKERGEKHTQERTCSVWSLLRAGNKAFKNLLYSSQSEAVLYPVCHVRNLMLWSAVYLPCPSPTTPVDDSCAPYPAPGTSPDDPPLSRLPKTRSYDNLTTACDNTVPLASRRCSDPSLNEKWQEHRRSLELSSLAGPGEDPLSADSLGKPTRVPGGAELSVAAGVAEGQMENILQEATKEESGVEEPAHRAGIEIQEGKEDPLLEKESRRKTPEASAIGLHQDPELGDAALRSHLDMSWPLFSQGISEQQSGLSVLLSSLQVPPRGEDSLEVPVEQFRIEEIAEGREEAVLPIPVDAKVGYGTSQSCSLLPSQVPFETRGPNVDSSTDMLVEDKVKSVSGPQGHHRSCLVNSGKDRLPQTMEPSPSETSLVERPQVGSVVHRTSLGSTLSLTRSPCALPLAECKEGLVCNGAPETENRASEQPPGLSTLQMYPTPNGHCANGEAGRSKDSLSRQLSAMSCSSAHLHSRNLHHKWLHSHSGRPSATSSPDQPSRSHLDDDGMSVYTDTIQQRLRQIESGHQQEVETLKKQVQELKSRLESQYLTSSLHFNGDFGDEVTSIPDSESNLDQNCLSRCSTEIFSEASWEQVDKQDTEMTRWLPDHLAAHCYACDSAFWLASRKHHCRNCGNVFCSSCCNQKVPVPSQQLFEPSRVCKSCYSSLHPTSSSIDLELDKPIAATSN
Regarding B4, the “Difference (log2), untreated vs GFP” value in assay [1] was 4.385 log2. For the same molecule, the “Difference (log2), PP1 vs untreated” value in assay [2] is given as -4.593 log2.

B5: CDC25B (protein, UniProt P30305 1-580, looked up)
M-phase inducer phosphatase 2: MEVPQPEPAPGSALSPAGVCGGAQRPGHLPGLLLGSHGLLGSPVRAAASSPVTTLTQTMHDLAGLGSETPKSQVGTLLFRSRSRLTHLSLSRRASESSLSSESSESSDAGLCMDSPSPMDPHMAEQTFEQAIQAASRIIRNEQFAIRRFQSMPVRLLGHSPVLRNITNSQAPDGRRKSEAGSGAASSSGEDKENDGFVFKMPWKPTHPSSTHALAEWASRREAFAQRPSSAPDLMCLSPDRKMEVEELSPLALGRFSLTPAEGDTEEDDGFVDILESDLKDDDAVPPGMESLISAPLVKTLEKEEEKDLVMYSKCQRLFRSPSMPCSVIRPILKRLERPQDRDTPVQNKRRRSVTPPEEQQEAEEPKARVLRSKSLCHDEIENLLDSDHRELIGDYSKAFLLQTVDGKHQDLKYISPETMVALLTGKFSNIVDKFVIVDCRYPYEYEGGHIKTAVNLPLERDAESFLLKSPIAPCSLDKRVILIFHCEFSSERGPRMCRFIRERDRAVNDYPSLYYPEMYILKGGYKEFFPQHPNFCEPQDYRPMNHEAFKDELKTFRLKTRSWAGERSRRELCSRLQDQ
With B5, the “Difference (log2), untreated vs GFP” value in assay [1] is 4.101 log2. Moreover, the “Difference (log2), PP1 vs untreated” value in assay [2] was -5.046 log2.

B6: TP53BP2 (protein, UniProt Q13625 1-1128, looked up)
Apoptosis-stimulating of p53 …: MMPMFLTVYLSNNEQHFTEVPVTPETICRDVVDLCKEPGESDCHLAEVWCGSERPVADNERMFDVLQRFGSQRNEVRFFLRHERPPGRDIVSGPRSQDPSLKRNGVKVPGEYRRKENGVNSPRMDLTLAELQEMASRQQQQIEAQQQLLATKEQRLKFLKQQDQRQQQQVAEQEKLKRLKEIAENQEAKLKKVRALKGHVEQKRLSNGKLVEEIEQMNNLFQQKQRELVLAVSKVEELTRQLEMLKNGRIDSHHDNQSAVAELDRLYKELQLRNKLNQEQNAKLQQQRECLNKRNSEVAVMDKRVNELRDRLWKKKAALQQKENLPVSSDGNLPQQAASAPSRVAAVGPYIQSSTMPRMPSRPELLVKPALPDGSLVIQASEGPMKIQTLPNMRSGAASQTKGSKIHPVGPDWSPSNADLFPSQGSASVPQSTGNALDQVDDGEVPLREKEKKVRPFSMFDAVDQSNAPPSFGTLRKNQSSEDILRDAQVANKNVAKVPPPVPTKPKQINLPYFGQTNQPPSDIKPDGSSQQLSTVVPSMGTKPKPAGQQPRVLLSPSIPSVGQDQTLSPGSKQESPPAAAVRPFTPQPSKDTLLPPFRKPQTVAASSIYSMYTQQQAPGKNFQQAVQSALTKTHTRGPHFSSVYGKPVIAAAQNQQQHPENIYSNSQGKPGSPEPETEPVSSVQENHENERIPRPLSPTKLLPFLSNPYRNQSDADLEALRKKLSNAPRPLKKRSSITEPEGPNGPNIQKLLYQRTTIAAMETISVPSYPSKSASVTASSESPVEIQNPYLHVEPEKEVVSLVPESLSPEDVGNASTENSDMPAPSPGLDYEPEGVPDNSPNLQNNPEEPNPEAPHVLDVYLEEYPPYPPPPYPSGEPEGPGEDSVSMRPPEITGQVSLPPGKRTNLRKTGSERIAHGMRVKFNPLALLLDSSLEGEFDLVQRIIYEVDDPSLPNDEGITALHNAVCAGHTEIVKFLVQFGVNVNAADSDGWTPLHCAASCNNVQVCKFLVESGAAVFAMTYSDMQTAADKCEEMEEGYTQCSQFLYGVQEKMGIMNKGVIYALWDYEPQNDDELPMKEGDCMTIIHREDEDEIEWWWARLNDKEGYVPRNLLGLYPRIKPRQRSLA
Turning to B6, the “Difference (log2), untreated vs GFP” value in assay [1] is 3.807 log2. Also, the “Difference (log2), PP1 vs untreated” value in assay [2] was -4.694 log2.

B7: FAM83G (protein, UniProt A6ND36 2-823, looked up)
Protein FAM83G: AFSQVQCLDDNHVNWRSSESKPEFFYSEEQRLALEALVARGRDAFYEVLKRENIRDFLSELELKRILETIEVYDPGSEDPRGTGPSQGPEDNGVGDGEEASGADGVPIEAEPLPSLEYWPQKSDRSIPQLDLGWPDTIAYRGVTRASVYMQPPIDGQAHIKEVVRKMISQAQKVIAVVMDMFTDVDIFKDLLDAGFKRKVAVYIIVDESNVKYFLHMCERACMHLGHLKNLRVRSSGGTEFFTRSATKFKGALAQKFMFVDGDRAVCGSYSFTWSAARTDRNVISVLSGQVVEMFDRQFQELYLMSHSVSLKGIPMEKEPEPEPIVLPSVVPLVPAGTVAKKLVNPKYALVKAKSVDEIAKISSEKQEAKKPLGLKGPALAEHPGELPELLPPIHPGLLHLERANMFEYLPTWVEPDPEPGSDILGYINIIDPNIWNPQPSQMNRIKIRDTSQASAQHQLWKQSQDSRPRPEPCPPPEPSAPQDGVPAENGLPQGDPEPLPPVPKPRTVPVADVLARDSSDIGWVLELPKEEAPQNGTDHRLPRMAGPGHAPLQRQLSVTQDDPESLGVGLPNGLDGVEEEDDDDYVTLSDQDSHSGSSGRGPGPRRPSVASSVSEEYFEVREHSVPLRRRHSEQVANGPTPPPRRQLSAPHITRGTFVGPQGGSPWAQSRGREEADALKRMQAQRSTDKEAQGQQFHHHRVPASGTRDKDGFPGPPRYRSAADSVQSSTRNAGPAMAGPHHWQAKGGQVPRLLPDPGSPRLAQNARPMTDGRATEEHPSPFGIPYSKLSQSKHLKARTGGSQWASSDSKRRAQAPRDRKDP
For B7, in assay [1], the “Difference (log2), untreated vs GFP” value worked out at 4.695 log2. The Difference in assay [2] (GFP-14-3-3β co-IP, PP1vsUntrted, Perseus raw output, LFQ intensity difference) is given as -4.783. For the same molecule, the “Difference (log2), PP1 vs untreated” value in assay [2] is recorded as -4.783 log2.
